{"source": "patent US6537785", "key": {"RNAse B": {"target": "RNAse B (UniProt P61823)", "sequence (P61823 27-150)": "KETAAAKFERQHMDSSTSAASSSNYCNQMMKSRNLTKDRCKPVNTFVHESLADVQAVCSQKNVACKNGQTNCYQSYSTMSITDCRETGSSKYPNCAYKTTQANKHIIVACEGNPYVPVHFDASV"}, "uteroferrin": {"target": "uteroferrin (UniProt P09889)", "sequence (P09889 22-340)": "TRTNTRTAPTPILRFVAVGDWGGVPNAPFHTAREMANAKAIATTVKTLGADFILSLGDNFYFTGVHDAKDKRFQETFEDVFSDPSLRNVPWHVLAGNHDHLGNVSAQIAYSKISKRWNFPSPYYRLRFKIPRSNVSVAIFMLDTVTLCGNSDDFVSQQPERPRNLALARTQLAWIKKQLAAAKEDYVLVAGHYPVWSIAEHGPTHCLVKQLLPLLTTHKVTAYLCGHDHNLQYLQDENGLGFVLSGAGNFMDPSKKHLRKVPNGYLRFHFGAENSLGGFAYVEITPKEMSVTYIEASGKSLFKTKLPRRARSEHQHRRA"}}, "data": [{"substance": "bovine GlcNAc-phosphotransferase (UDP-N-acetylglucosamine: lysosomal enzyme N-Acetylglucosamine-1-phosphotransferase)", "values": [{"measurement": "Km (transfer of GlcNAc-1-P to glycoprotein acceptor)", "setting": "RNAse B", "result": "the Km was not reached at the solubility limit of the protein (at 600 µM)"}, {"measurement": "Km (transfer of GlcNAc-1-P to glycoprotein acceptor)", "setting": "cathepsin D", "result": "Kms below 20 µM"}, {"measurement": "Km (transfer of GlcNAc-1-P to glycoprotein acceptor)", "setting": "uteroferrin", "result": "Kms below 20 µM"}]}]}
